According to publication PMC3781043, “A Transcript Profiling Approach Reveals an Abscisic Acid-Specific Glycosyltransferase (UGT73C14) Induced in Developing Fiber of Ligon lintless-2 Mutant of Cotton (Gossypium hirsutum L.)” (PLoS ONE, 2013):

Tests used:
[1] = substrate: CC1=CC(=O)CC(C)(C)[C@@]1(O)/C=C/C(C)=C\C(=O)O; experiment: HPLC-MS of ABA glucoside formed, hyperbolic regression; type: biochemical, Gossypium hirsutum; conditions: 2.5 mM UDP-glucose as sugar donor, 50 mM MgCl2, 500 µM ATP, 50 mM Tris-HCl pH 8.0, 30°C
From the text: (§1) HPLC-MS of ABA glucoside formed, hyperbolic regression on UGT73C14

[2] = substrate: CC1=CC(=O)CC(C)(C)[C@@]1(O)/C=C/C(C)=C/C(=O)O; experiment: as above; type: biochemical, Gossypium hirsutum; conditions: 2.5 mM UDP-glucose as sugar donor, 50 mM MgCl2, 500 µM ATP, 50 mM Tris-HCl pH 8.0, 30°C
From the text: as §1

B1: UGT73C14 (Gossypium hirsutum) (protein)
chain: AQGHFVLIPFMAQGHLIPMVDIGRLLAQRGVTVTIVTTPYNAGRVQKSVARAIESGLPIRLLQLQFPGKEVGLIDGVENIDMLHSMEDLIKFVSAANKMEEAMLKLFEKLTPRPNCIISDINLFYTRKIASKFQVPKISFHGFCCFCLLCLRNIQSSKINETVTSDSEYFTVPGLTDKVEFTRVQLPLDNDGSWKEIFEPMWEADRASYGVVINTFEELESAYVKEYRKEKKAWCIGPVSLSHKDELDMAERGNKTSIDGQKCLKWLDSQQPGSVIYACLGSIGTIKCPELIELGLGLEASNKPFIWVLRGNNPTASEVYKWIRRNEFEERTKGRGLVVVGWAPQVLILSHPAIGGFLTHCGWNSIIEGISAGVPLITFPFMGDQFCNEKLAVQILKIGVNLGANKPTMLGDEKSGFILNTEHVKNAIDKLMEQGNEGKEMRKRAKELGDEANKAVEVGGSSYMNITLLIQDILQQSQEMR
notes: about 99 kDa
B1 showed a Km [1] of 61.7 µM, a Vmax [1] of 221 µmol/min and a kcat [1] of 7.2 s⁻¹. For the same protein, the kcat/Km [1] was 115000 M⁻¹ s⁻¹, the Km [2] was 98.1 µM and the Vmax [2] was 82.9 µmol/min. The kcat [2] was 2.7 s⁻¹ and the kcat/Km [2] was 27100 M⁻¹ s⁻¹.
